Biological target: T1, B cell maturation antigen (BCMA) (UniProt Q02223 1-54, limits assumed)
T1 construct: also called CD269; TNFRSF17
T1 sequence (looked up): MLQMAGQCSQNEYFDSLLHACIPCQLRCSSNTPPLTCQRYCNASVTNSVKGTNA
Assay: not stated (no method given)

B1: BCMA nanobody (BCMA binding domain of NPB5005) (VHH)
VHH: EVQLQASGGGLAQPGGSLRLSCAASGRTFSTYFMAWFRQPPGKGLEYVGGIRWSDGVPHYADSVKGRFTISRDNAKNTVYLQMNSLRAEDTAVYFCASRGIADGSDFGSYGQGTQVTVSS
Kd: 1 nM

— patent US20250195657A1 (NEOMICS PHARMACEUTICALS, published 2025)
